According to the nanobody polyreactivity screen of Harvey et al. (2022):

Test: yeast display, Sf9 membrane polyspecificity reagent, FACS + sequencing; frameworks hold sequencing errors
How it was run: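 Genes from sorted yeast were amplified by colony PCR, read by MiSeq 2 × 250 sequencing and filtered on CDR length. These cells carried a synthetic nanobody library in Saccharomyces cerevisiae BJ5465 and were sorted by FACS into low and high (top ~1%) gates on anti-HA and streptavidin fluorescence. Polyreactivity is labelled according to the gate of origin.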

Row | Sequence | polyreactivity (PSR sort gate)
1 | QVQLVESGGGIVQAGGSLRLSCAASGLTICDYAMGWYRQAPGKERELVAAISSSGGRTYYADSVKGRFTISRDNAKNTVYLQMNSLKPEDTAVYYCAAQSKYYQYYSWGQGTQVTVSS | high polyreactivity
2 | QVQLVESGGGLVQAGGSLRLSCAASGSTSYVYAMGWYRQAPGKERELVAANSGSGGRTYYADSVKGRFTISRDNAKNTVYLQMNSLKPEDTAVYYCNALTRPSYPFDYWGLGTQVTVSS | high polyreactivity
3 | QVQLVESGGGLVQAGGSLRLSCAASGSNFTPYAMGWYRQAPGKERELVAAISGSGGSTRYADSVKARYTISRDNAKNTVYLQMNSLKPEDTAVYYCAADRYTYIWYHIYDYWGQGTQVTVSS | low polyreactivity
4 | QVQLVESGGGLVQAGGSLRLSCAASGSIFRYYAMGGYIQAPGKERELVAAISGDSGRTYYADSVKGRFTISRDNAKNTVYFQMNSLNPDDTAVYYCNARVAYRYRTGYDYWGQGTQVTVSS | high polyreactivity
5 | QVQLVESGGGLVQAGGSDRLSCAASGSIIDYYAMGWYRQAPGKERELVADITVTGDGTYYADSVKGRFTISRDNAKNTVYLQMNSLKPEDTAVYYCAAAGVYYGVRGTTYAYDYWGQGTQVTVSS | low polyreactivity
6 | QVQLVESGGGLVQAGGSLRLSCAASGRIFGVNAMGWYRQAPGKERELVAGISISGGSTHYADSVKGRFTISRDNAKNTVYLQMNSLKPEDTAVYYCAKRFYKYVSYWHDYWGQGTQVTVSS | low polyreactivity
7 | QVQLVESGGGLVQAGGSLRLSCSASGLTFYSNAMGWYRQAPGKERELVASISKRGATTYYADSVKGRFTISRDNAKNTVYLQMNSLKPEDTAVYYCAADLRITSYNSWGQGTQVTVSS | low polyreactivity
8 | QVQLVESGGGLVQAGGSLRLSCAASGSIFAVNAMGWYRQAPGKERELVAAISFGGGDTYYADSVKGRFTISRDNAKNTVYLQMNSLKPEDTAVYYCAADVITRGVKYLGQVAYEYWGQGTQVTVSS | low polyreactivity
9 | QVQLVESGGGLVQAGGSLRLSCAASGFTFYINALGWYRLAHGKERELVAAITWRSVRTYYADSVKGRFTISRDNAKNTVYLQMNSRKPEDTEVYYCAAASAYRHGEYDYWGQGTQLTVSS | low polyreactivity
10 | QVQLVESCGCLVQAGGSLRLSCAASGIIFFPYAMGWYRQAPGKEREFVAAITSRRGSTYYADSVKGRFTISRDNPKNTVYLQMNILKPEDTAVYYCAAAWCAPSRFFSAFDYWGQGTQVTVSS | low polyreactivity
11 | QVQLVESGGGLVQAGGSLRLSCAASGSIFDDYAMGWYRQAPGNERELVAAITSGGSTYYADSVKGRFTISRDNAKNTVYLQMNSLKPEDTAVYYWAAPENKSDEYDYWGQGTQVTVSS | low polyreactivity
12 | QVQLVESGGGLVHAGGSIRLSCSASGRTVGVNMGWYRQSPGKERELVAVISSGDSTNYADSVKGRFTISRDNAKNTFYLQMNSLKQEDTAVYYCNAYGSDRLTLDDYWGQGTQVTVSS | low polyreactivity
13 | QVQLVESGGGLVQAGGSLRLSCAASGRIFTTYAMGWYSRGPGKERELVAAISQNGGSTYYADSVKGRFTISRDNAKNTVYLQMNSLKPEDTAVYYCNAGPAGYYDYDYRGQGTQVTVSS | low polyreactivity
14 | QVQLVESGGGLVQAGGSLRFSWAASGFIFRSNAMGWYRQAPGKERELVAAISKSGGSTYYADSVKGRFTISRDTAKKTVYLQMNSLKPEDTAVYYCFVDYYPYDYWGQGTQVTVSS | low polyreactivity
15 | QVQLVESGGGLVQAGGSLRLSCAASGSTLYYYAMGWSRQAPGKERELVAAISWSGGITYYADSVKGRFTISRDNAKNTVYLQMNSLKPEDTAVYYCAADKYQGYTFYQGYPGGGGYWGQGTQVTVSS | low polyreactivity
16 | QVQLVESGGGLVQAGGSLRLSCAASGFTFHYYTMGWYRQAPGKDRELVATIRWSAGSTYYADSVKGRFTISRDNAKNTVYLQMNSLKPEDTAVYYCAVRSLRVDKYGYWGQGTQVTVSS | high polyreactivity
17 | QVQLVESGRGIVQAGGSLRISWAASGITLAGYVMGLYRQAPGKESELVADISSSGDSTYYADSVKGRFTMSRDNAKNTVYLQMNSLKPEDTAVYYCAAKCGRTGSFDYWGQGTQVTVSS | low polyreactivity
18 | QVQLVESGGGLVQAGGSLRLSCAASGFTFTPYAMGWYRQAPGKERELVAAITSTGGSTYYADSVKGRFTISRHNAKNTVYLQMNSLKPEDAAVYYCNAATPYSWGYRRGYWGQGTQVTVSS | high polyreactivity
19 | QVQLVESGGGLVQAGGSLRLSCAASGFTFYYYAMGWYRQAPGKERELVAAITSGGSTYYADSVKGRFTISRDNAKNTVYLQMNSLKPEDTAVYYCNTVHYNLDYEYDYWGQGTQGTVSS | low polyreactivity
20 | QVQLVESGGGLVQAGGSLRLSCAASGSIVAGNAMGWYIQAPGKEREMVAAITWRSGRTYYADSVKGRFTISRDNAKNTVNLQMNSLKPVDTAVYYCARGRYGYTAPVRRWYFRYDYWGQGTQVTVSS | high polyreactivity
21 | QVQLVESGGGLVQAGGSLRLSCAASGFTFWLYSMGWDRQAPGKEREFVAAISTSGGSTYADSVKGRFTISRDNAKNTVYLLMNSLKPEDTAVYYCAGVYTYPLGYYHYTYDYWGQGTQVTVSS | low polyreactivity
22 | QVQLVESGGGLLQAGGSLRISCAASGSTFYYYAMGWYRQAPGKERELVAAISRGGGSTYYADSVKGRFTISRDNAKNTVYLQMNSLKPEDTAVYYCAARRVGGGFYTWRNPAYEYWGQGTQVTVSS | high polyreactivity

Row | Sequence | polyreactivity (PSR sort gate)
23 | QVQLVESGGGLVQAGGSLRLSCAASGSIFSIYAMGWSRQAPGTERELVATITRNSGRTYYADSVKGRFTISRDNAKNTVYLQMNSLKPEDTAVYYCAASVKIISYLVHSEFLGGELDYWGQGTQVTVSS | low polyreactivity
24 | QVQLVESGGGLVQAGGSLRLSCAASGITFGRNTMGWYRQAPGNERELVAAIDSGGNTYADSVKGRFTISRDNAKNTFYLQMNSLKPEDTAVYYCCVDGGEFSSYGYWGQGTQVTVSS | low polyreactivity
25 | QVQLVESGGGLVQAGGSLRLSCAASGSIFSSYAMGWSRQAPGKERELVAAISSGDSTYYADSVKGRFTISRDNAKTTVYLQMNSLKPEDTAVYYCAAPWYAWGQGTQVTVSS | low polyreactivity
26 | QVHLVESGGGLFQAGGRLRLSCAAAGSTFPKYARGWYRQAPGKERELVAAISWSGDSTNYADSVKGRITISRDNAKNTVYVQMNSLKPEDTAVYYCAAYNFIHAGPWEYDYWGQGTQVTVSS | low polyreactivity
27 | QVQLVESGGGLVQAGGSLRLSWAASGSIFYWNAMGWYRQAPGKERELVATITITTSTNYADSVKGRFTISRDNAKNTVYLQMNSLKPEDTAVYYCNAGAPYRYLDEYNYWGQGTQVTVSS | low polyreactivity
28 | QVQLVESGGGLVQAGGSLRLSCAASGRTFAYYAMGWYRQAPGKERELVAAIDSSGGSTYYADSVKARFTISRDNAKNTVYLQMNSLKPEDTADYYCAASYPYDRYDQGGYGYWGQGTQVTVSS | low polyreactivity
29 | QVQLVESGGGLVQAGGSLRLSCAASGLSFPLNAMGWYRPAPGKERQLVAAITYSGGGTYYADSVKGRFTISRDTAKNTGYLQMNSLKTEDTAVYYCAADGSVSYYTYYYWGQGTQVTVSS | low polyreactivity
30 | QVQLVESGAGLVQAGGSLRLSCAPSGRIFYYAMGWYRQAPGKERELVAAISSGGSTNYADSVKGRFTISRDNSKNSVYLQMNSLKPEDTAVYYCAADRYWRWPRRDYWGQGTQVTVSS | low polyreactivity
31 | QVQLVESGGGLVQAGGSLRLSCSASGRIFYPYAMGWYRQAPGKERELVAAITRRTASTYYADSVKGRFTISRDNAKNTVYLQMNSLKPEDTAVYFCAADSYLKRPYYAGYYYWGQGTQVTVSS | high polyreactivity
32 | QLQLEDSGGGLVQAGGILRLSFAASGFTFFYNAMRWYSQAPATEREFDAAISGRGGTTYYADSVKGRFTISRDNAKNTVYLQMNSVKPEDTAVYYCAARSVSTLRYTSGKLRYDYWGQGTQVTVSS | high polyreactivity
33 | QVQLVESGGGLVQAGGSLRLSCAASGSIFTRNTMGWSRQAPGKERELVAAISQRGGSTYSADSVKGRFTISRDNAKNTVYLQMNSLKPEDTAVYYCAADFSFGYYWDGFWGQGTQVTVSS | high polyreactivity
34 | QVQLVESGGGLVQAGGSHRLSFAASGGIFRGYALGWNRQAPGKERELGATIRSSGRTNYADSVKGRFTIARDNAKNTVYLQMNCLKPDDTAVYYCNKRRWWQYDRWSDWVLGGDDYWGQGTQLTVSS | low polyreactivity
35 | QVQLVDSGGGLVQAGGSLRLSCAASGFTFGPYAMGWYRQAPGKERELGARITYRTGSTYYGDSVKGRFTISRDNAKNTVYLQINSLKPEDTAVYYCAAAYYCGQGTQVTVSS | high polyreactivity
36 | QVQLVESGGGLVQAGGSLRKSCAASGSTFVDYDMGWYRQAPGKERELVAGITTGGSTNYADSVKGRFPISRDNAKNTVYLQMNSLKPEDTAVYYCNADSYPILVPDYLYYWYEYWGQGTQVTVSS | low polyreactivity
37 | QVQLVESGGGLGQAGGSLRLSCAASGRTFFRYAMGWYRQAPGKERELVAAISSRGGSTYYADSVKGRFTISRDNAKNTVYLQMNSLKPEDTAVYYCNAAAFINFILYDYWGQGTQVTVSS | high polyreactivity
38 | QVQLVESGGGLVQAGGSLRLSCAASGSIIDRYAMGWYRQAPGKERELVAAISRSGGSTYYADSVKGRFTISRDNAKNTVYLQMKSLKPEDTAFYYCAAGGDSGDDWGQGTQVTVSS | low polyreactivity
39 | QVQLVESGGGLVQAGGSLRLSCAASGSIFRAYAMGWYRQAPGKERELVADISRSGGSTYYADSVKGRFTISRDNAKNTVYLQLNSLKPEDTAVYYCAAVFYLYSNLYGEYDYWGQGTQVTVSS | low polyreactivity
40 | QVQLVESGGGLVQAGGSLRLSCAASGSIFGGYAMGWYRQAPGKERELVAAISYRGASTYYADSVKGRFTISRDNAKNTVYLQMNSLKPEDTAVYYCAARHDKRRQYYVGQSAFDYWGQGTQVTVSS | low polyreactivity
41 | QVQLVDSGGGLVQAGGSLRLSCAGSGLTFRFYAMVWYRQAPGKEREFVAAISSSGTTTYYADSVKGRFTISRDNAKNTVYLQMNSLKPEDTADFYCNKEYTTYGYDLEYDFWGQGTQVTVSS | low polyreactivity
42 | QDQLVESGGGLVQAVGSLRLSCAASGSTFGLYAMGWYRQAPGKERELVAAITIRGGSTYYADSVKGRFTISRDNAKKTVYLQMNSLKPEDTAVYYCAADYWYGCFEYWGQGTQVTVSS | low polyreactivity
43 | QDQLVESGGGLVQAGGRLRLSCAASGSTFRRYAMGWYRQAPGTERDWVAAISGGGGSTYYADSVKGRFTISRDNAKNTVYLQMNSLKPEDTAVYYCNIPFPYYPDGPNGYDYWGQGTQVTVSS | low polyreactivity
